Substitutions are numbered along the chain they refer to. Starred links: 1 amine or outer side, 2 acyl side, 3 side chain; linkers in the order of their positions; H or OH if unused. Non-standard residues stand in square brackets, D forms with d. Groups on a side chain read outwards from the residue. No end group written: not given here. *: point of attachment. C20 diacid = O=C(O)CCCCCCCCCCCCCCCCCCC(=O)*; γGlu = O=C(O)[C@H](CCC(=O)[*:2])N[*:1]; αMeF = C[C@](N)(Cc1ccccc1)C(=O)O; AEEA = NCCOCCOCC(=O)O; Ac3c = NC1(C(=O)O)CC1; Aib = CC(C)(N)C(=O)O
T1: human GIP receptor (human, UniProt P48546 22-466)
T1 sequence (looked up): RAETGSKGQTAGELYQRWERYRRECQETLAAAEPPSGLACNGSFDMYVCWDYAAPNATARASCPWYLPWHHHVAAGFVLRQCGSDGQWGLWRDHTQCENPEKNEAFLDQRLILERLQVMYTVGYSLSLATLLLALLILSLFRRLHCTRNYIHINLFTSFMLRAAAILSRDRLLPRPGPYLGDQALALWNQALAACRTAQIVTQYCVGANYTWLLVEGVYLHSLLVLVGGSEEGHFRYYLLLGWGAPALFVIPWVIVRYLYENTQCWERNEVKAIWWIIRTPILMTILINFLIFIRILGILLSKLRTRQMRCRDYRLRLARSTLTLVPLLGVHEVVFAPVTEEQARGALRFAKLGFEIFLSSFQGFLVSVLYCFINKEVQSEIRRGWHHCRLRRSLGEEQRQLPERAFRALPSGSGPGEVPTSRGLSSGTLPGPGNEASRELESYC

B1: Compound 25 (peptide)
peptide: YXQGTXTSDYSIXLDKKAQXAFIEFLLEGRPSSXHPPPS
modifications: Aib at 2; αMeF(2F) at 6; αMeL at 13; Lys 17 side chain AEEAc-AEEAc-γGlu-CO(CH2)18COOH; Aib at 20; Aib at 34; C-terminal amide (NH2)
B2: Compound 28 (peptide)
peptide: Y[Aib]QGT[αMeF]TSDYSIXLDKK([AEEA-AEEA-γGlu-C20 diacid])AQ[Aib]AFIEFLLES[Aib]PSSGAPP[Ac3c]S-NH2
modifications: not fully specified (residue 13); printed as Y-Aib-QGT-αMeF-TSDYSI-αMeF-LDKK(AEEAc-AEEAc-γGlu-CO(CH2)18COOH)AQ-Aib-AFIEFLLES-Aib-PSSGAPP-Ac3c-S-NH2
B3: Compound 23 (peptide)
peptide: YXQGTXTSDYSIXLDKKAQXAFIEYLLETGPSSGQPPPS
modifications: Aib at 2; αMeF(2F) at 6; αMeL at 13; Lys 17 side chain AEEAc-AEEAc-γGlu-CO(CH2)18COOH; Aib at 20; C-terminal amide (NH2)
B4: Compound 1 (peptide)
peptide: B3 peptide with Q35A, P38X
modifications: Aib at 2; αMeF at 6; αMeL at 13; Lys 17 side chain AEEAc-AEEAc-γGlu-CO(CH2)18COOH; Aib at 20; Ac3c at 38; C-terminal amide (NH2)
B5: Compound 34 (peptide)
peptide: B3 peptide with P38X
modifications: Aib at 2; αMeF(2F) at 6; αMeL at 13; Lys 17 side chain AEEAc-AEEAc-γGlu-CO(CH2)18COOH; Aib at 20; Ac3c at 38; C-terminal amide (NH2)
B6: Compound 38 (peptide)
peptide: B1 peptide with G29T, R30G
modifications: Aib at 2; αMeF(2F) at 6; αMeL at 13; Lys 17 side chain AEEAc-AEEAc-γGlu-CO(CH2)18COOH; Aib at 20; Aib at 34; C-terminal amide (NH2)
B7: Compound 36 (peptide)
peptide: B1 peptide with R30G
modifications: Aib at 2; αMeF at 6; αMeL at 13; Lys 17 side chain AEEAc-AEEAc-γGlu-CO(CH2)18COOH; Aib at 20; Aib at 34; C-terminal amide (NH2)
B8: Compound 35 (peptide)
peptide: B3 peptide with P38X
modifications: Aib at 2; αMeF at 6; αMeL at 13; Lys 17 side chain AEEAc-AEEAc-γGlu-CO(CH2)18COOH; Aib at 20; Ac3c at 38; C-terminal amide (NH2)
B9: Compound 15 (peptide)
peptide: YXQGTXTSDYSIFLDKKAQXAFIEFLLESHPSSGAPPPS
modifications: Aib at 2; αMeF at 6; Lys 17 side chain AEEAc-AEEAc-γGlu-CO(CH2)18COOH; Aib at 20; C-terminal amide (NH2)
B10: Compound 30 (peptide)
peptide: B9 peptide with F13X, S29T, H30X, P38X
modifications: Aib at 2; αMeF at 6; αMeL at 13; Lys 17 side chain AEEAc-AEEAc-γGlu-CO(CH2)18COOH; Aib at 20; Aib at 30; Ac3c at 38; C-terminal amide (NH2)
B11: Compound 2 (peptide)
peptide: B3 peptide with G30H, Q35A, P38X
modifications: Aib at 2; αMeF at 6; αMeL at 13; Lys 17 side chain AEEAc-AEEAc-γGlu-CO(CH2)18COOH; Aib at 20; Ac3c at 38; C-terminal amide (NH2)
B12: Compound 31 (peptide)
peptide: B9 peptide with F13X, S29X, P38X
modifications: Aib at 2; αMeF(2F) at 6; αMeL at 13; Lys 17 side chain AEEAc-AEEAc-γGlu-CO(CH2)18COOH; Aib at 20; Aib at 29; Ac3c at 38; C-terminal amide (NH2)
B13: Compound 20 (peptide)
peptide: B9 peptide with F13X, S29X
modifications: Aib at 2; αMeF(2F) at 6; αMeL at 13; Lys 17 side chain AEEAc-AEEAc-γGlu-CO(CH2)18COOH; Aib at 20; Aib at 29; C-terminal amide (NH2)
B14: Compound 33 (peptide)
peptide: B1 peptide with G29S, R30H, P38X
modifications: Aib at 2; αMeF at 6; αMeL at 13; Lys 17 side chain AEEAc-AEEAc-γGlu-CO(CH2)18COOH; Aib at 20; Aib at 34; Ac3c at 38; C-terminal amide (NH2)
B15: Compound 22 (peptide)
peptide: B3 peptide with Y25F, T29G
modifications: Aib at 2; αMeF(2F) at 6; αMeL at 13; Lys 17 side chain AEEAc-AEEAc-γGlu-CO(CH2)18COOH; Aib at 20; C-terminal amide (NH2)
B16: Compound 26 (peptide)
peptide: B9 peptide with F13X
modifications: Aib at 2; αMeF at 6; αMeL at 13; Lys 17 side chain AEEAc-AEEAc-γGlu-CO(CH2)18COOH; Aib at 20; C-terminal amide (NH2)
B17: Compound 18 (peptide)
peptide: B9 peptide with F25Y, S29X
modifications: Aib at 2; αMeF(2F) at 6; Lys 17 side chain AEEAc-AEEAc-γGlu-CO(CH2)18COOH; Aib at 20; Aib at 29; C-terminal amide (NH2)
B18: Compound 17 (peptide)
peptide: B3 peptide with X13F, Q35A
modifications: Aib at 2; αMeF(2F) at 6; Lys 17 side chain AEEAc-AEEAc-γGlu-CO(CH2)18COOH; Aib at 20; C-terminal amide (NH2)
B19: Compound 21 (peptide)
peptide: B9 peptide with S29G, H30G, A35Q
modifications: Aib at 2; αMeF(2F) at 6; Lys 17 side chain AEEAc-AEEAc-γGlu-CO(CH2)18COOH; Aib at 20; C-terminal amide (NH2)
B20: Compound 19 (peptide)
peptide: B3 peptide with Y25F, Q35A
modifications: Aib at 2; αMeF(2F) at 6; αMeL at 13; Lys 17 side chain AEEAc-AEEAc-γGlu-CO(CH2)18COOH; Aib at 20; C-terminal amide (NH2)
B21: Compound 27 (peptide)
peptide: B9 peptide with F13X, F25Y
modifications: Aib at 2; αMeF at 6; αMeF at 13; Lys 17 side chain AEEAc-AEEAc-γGlu-CO(CH2)18COOH; Aib at 20; C-terminal amide (NH2)
B22: Compound 32 (peptide)
peptide: B9 peptide with F25Y, S29X, P38X
modifications: Aib at 2; αMeF(2F) at 6; Lys 17 side chain AEEAc-AEEAc-γGlu-CO(CH2)18COOH; Aib at 20; Aib at 29; Ac3c at 38; C-terminal amide (NH2)
B23: Compound 16 (peptide)
peptide: B9 peptide with S29X
modifications: Aib at 2; αMeF at 6; Lys 17 side chain AEEAc-AEEAc-γGlu-CO(CH2)18COOH; Aib at 20; Aib at 29; C-terminal amide (NH2)
B24: Compound 29 (peptide)
peptide: B9 peptide with F25Y, H30X, P38X
modifications: Aib at 2; αMeF at 6; Lys 17 side chain AEEAc-AEEAc-γGlu-CO(CH2)18COOH; Aib at 20; Aib at 30; Ac3c at 38; C-terminal amide (NH2)

What was measured:
Assay in all cases: cell-based or functional assay
human GIP receptor = target: T1, human GIP receptor
human GLP-1 receptor = human GLP-1 receptor (human, UniProt P43220 24-463)
human GCG receptor = human GCG receptor (human, UniProt P47871 26-477)
Sequence of human GCG receptor (P47871 26-477): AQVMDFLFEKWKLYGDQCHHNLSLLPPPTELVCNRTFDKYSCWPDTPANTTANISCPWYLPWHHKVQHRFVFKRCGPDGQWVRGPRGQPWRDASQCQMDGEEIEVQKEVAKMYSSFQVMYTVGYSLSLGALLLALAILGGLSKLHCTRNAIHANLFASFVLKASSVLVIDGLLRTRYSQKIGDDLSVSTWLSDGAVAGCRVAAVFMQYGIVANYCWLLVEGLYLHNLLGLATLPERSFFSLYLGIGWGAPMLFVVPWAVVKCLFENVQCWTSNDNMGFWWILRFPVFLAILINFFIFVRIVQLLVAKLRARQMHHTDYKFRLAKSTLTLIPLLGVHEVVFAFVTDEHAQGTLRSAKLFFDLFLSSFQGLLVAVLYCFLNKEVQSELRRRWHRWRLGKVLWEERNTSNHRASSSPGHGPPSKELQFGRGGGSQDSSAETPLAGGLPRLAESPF

Binder	cAMP EC50, CHO cells stably overexpressing human GIP R (human GIP receptor) [nM]	cAMP Rel. A (%) against human GIP, human GIP R cells (human GIP receptor) [%]	cAMP EC50, HEK-293 cells stably overexpressing human GLP-1 R (human GLP-1 receptor) [nM]	cAMP Rel. A (%) against human GLP-1 (7-37), human GLP-1 R cells (human GLP-1 receptor) [%]	cAMP EC50, HEK-293 cells stably overexpressing human GCG R (human GCG receptor) [nM]	cAMP Rel. A (%) against human GCG, human GCG R cells (human GCG receptor) [%]
B1	0.013	1390	0.031	142	0.034	168
B2	0.011	1650	0.024	183	0.154	37
B3	0.007	2590	0.005	880	0.025	228
B4	0.015	1210	–	–	–	57.6
B5	0.005	3620	0.023	191	0.038	150
B6	0.013	–	–	–	0.068	–
B7	–	2590	0.025	176	–	127
B8	0.008	2260	0.022	200	0.087	65.5
B9	–	548	0.023	191	–	41
B10	0.015	1210	0.02	220	0.173	33
B11	0.025	724	0.026	169	0.232	24.6
B12	–	2010	0.012	367	–	211
B13	–	3020	0.01	440	–	248
B14	0.008	2260	0.019	232	0.155	36.8
B15	0.007	2590	–	733	0.017	335
B16	0.007	2590	0.022	200	–	43.9
B17	0.021	862	0.012	367	0.026	219
B18	–	953	0.011	400	–	163
B19	0.008	2260	0.005	880	0.025	228
B20	0.008	2260	0.009	489	0.029	197
B21	0.023	787	0.016	275	–	96.6
B22	0.011	1650	0.014	314	0.017	335
B23	–	335	0.02	220	–	33.9
B24	0.309	58.6	0.016	275	0.069	82.6

— patent US20250129135A1, “Multi-Agonist and Use Thereof” (priority 2021, published 2025)
